Test results published in PMC11006869.

Columns and labels:
[1] = target: ErNaR, NDQ rhodopsin (light-driven sodium pump) from Erythrobacter sp. HL-111 (Erythrobacter sp. HL-111); test: SEC; detergent-solubilized ErNaR, pH 2.3
[2] = target: ErNaR, NDQ rhodopsin (light-driven sodium pump) from Erythrobacter sp. HL-111 (Erythrobacter sp. HL-111); test: SEC; detergent-solubilized ErNaR, pH 8.0
[3] = target: ErNaR, NDQ rhodopsin (light-driven sodium pump) from Erythrobacter sp. HL-111 (Erythrobacter sp. HL-111); test: cryo-EM structure; single particle; 20 mM Tris pH 8.0, 200 mM NaCl, 0.05% DDM; C5 symmetry; 2.63 Å
[4] = target: ErNaR, NDQ rhodopsin (light-driven sodium pump) from Erythrobacter sp. HL-111 (Erythrobacter sp. HL-111); test: cryo-EM structure; single particle; 100 mM sodium acetate pH 4.3, 200 mM NaCl, 0.05% DDM; C5 symmetry; 2.50 Å

Measured: stoichiometry N

ErNaR, NDQ rhodopsin (light-driven sodium pump) from Erythrobacter sp. HL-111 (natural protein)
5: all assays above
